Where a chain is given by its changes, count along the chain named. Names and notes keep the numbering of the source.
T1: HepG2 cells (which express ASGR1) (Homo sapiens, UniProt P07306)
T1 construct: endogenous in cells; host or cells: HepG2
T1 sequence (P07306 1-291): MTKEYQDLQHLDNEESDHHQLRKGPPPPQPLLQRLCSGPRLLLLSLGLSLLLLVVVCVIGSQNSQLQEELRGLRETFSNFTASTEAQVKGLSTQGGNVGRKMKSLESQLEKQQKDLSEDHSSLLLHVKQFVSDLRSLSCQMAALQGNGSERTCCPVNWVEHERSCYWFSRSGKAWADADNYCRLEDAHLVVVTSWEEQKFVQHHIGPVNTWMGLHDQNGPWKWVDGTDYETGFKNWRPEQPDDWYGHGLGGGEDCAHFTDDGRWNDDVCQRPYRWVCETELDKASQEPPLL

B1: hzG2D-33: humanized G2D clone; "G2D VL region ... of clones 1-16, 19-21, 26-29, 31, and 33 ... grafted into the human germline sequence VKI-L1 with JK4" (antibody, V domains shown)
VH: QVQLVQSGAEVKKPGASVKVSCKASGYTFTGYYMHWVRQAPGQRLEWMGRINPNNGATNYNQNFKDKASLTVDTSASTAYMELSSLTSEDTAVYYCTSVNFYYWGQGTTVTVSS
VL: DIQMTQSPSSLSASVGDRVTITCKASQVINSYLSWFQQKPGKAPKSLIYRANTLVDGVPSRFSGSGSGTDFTLTISSLQPEDFATYYCLQYAEFPYTFGGGTKVEIK
modifications: Synthetic sequence hzG2.51D VH R66K, V67A, T68S, I69L, R71V, R84T, A93T, R94S; Synthetic sequence hzG2D VLa
B2: hzG2D-5: humanized G2D clone; "G2D VL region ... of clones 1-16, 19-21, 26-29, 31, and 33 ... grafted into the human germline sequence VKI-L1 with JK4" (antibody, V domains shown)
VH: B1 VH with T28S, K67R, A68V, S69T, L70I, V72R, T87R, V110L
VL: B1 VL
modifications: Synthetic sequence hzG2.8D VH T28S, A93T, R94S, V109L; Synthetic sequence hzG2D VLa
B3: hzG2D-9: humanized G2D clone; "G2D VL region ... of clones 1-16, 19-21, 26-29, 31, and 33 ... grafted into the human germline sequence VKI-L1 with JK4" (antibody, V domains shown)
VH: B1 VH with S69T, L70I, V72R, T87R, V110L
VL: B1 VL
modifications: Synthetic sequence hzG2.40D VH R66K, V67A, A93T, R94S, V109L; Synthetic sequence hzG2D VLa
B4: hzG2D-8: humanized G2D clone; "G2D VL region ... of clones 1-16, 19-21, 26-29, 31, and 33 ... grafted into the human germline sequence VKI-L1 with JK4" (antibody, V domains shown)
VH: B1 VH with T28S, K67R, A68V, T87R, T97A, S98R, V110L
VL: B1 VL
modifications: Synthetic sequence hzG2.6D VH T28S, T68S, I69L, R71V, V109L; Synthetic sequence hzG2D VLa
B5: hzG2D-6: humanized G2D clone; "G2D VL region ... of clones 1-16, 19-21, 26-29, 31, and 33 ... grafted into the human germline sequence VKI-L1 with JK4" (antibody, V domains shown)
VH: B1 VH with K67R, A68V, T87R, T97A, S98R, V110L
VL: B1 VL
modifications: Synthetic sequence hzG2.43D VH T68S, I69L, R71V, V109L; Synthetic sequence hzG2D VLa
B6: hzG2D-2: humanized G2D clone; "G2D VL region ... of clones 1-16, 19-21, 26-29, 31, and 33 ... grafted into the human germline sequence VKI-L1 with JK4" (antibody, V domains shown)
VH: B1 VH with T28S, K67R, A68V, S69T, L70I, V72R, T87R, T97A, S98R, V110L
VL: B1 VL
modifications: Synthetic sequence hzG2.1D VH T28S, V109L; Synthetic sequence hzG2D VLa
B7: hzG2D-12: humanized G2D clone; "G2D VL region ... of clones 1-16, 19-21, 26-29, 31, and 33 ... grafted into the human germline sequence VKI-L1 with JK4" (antibody, V domains shown)
VH: B1 VH with T28S, S69T, L70I, V72R, T87R, V110L
VL: B1 VL
modifications: Synthetic sequence hzG2.3D VH T28S, R66K, V67A, A93T, R94S, V109L; Synthetic sequence hzG2D VLa
B8: hzG2D-3: humanized G2D clone; "G2D VL region ... of clones 1-16, 19-21, 26-29, 31, and 33 ... grafted into the human germline sequence VKI-L1 with JK4" (antibody, V domains shown)
VH: B1 VH with K67R, A68V, S69T, L70I, V72R, T87R, V110L
VL: B1 VL
modifications: Synthetic sequence hzG2.45D VH A93T, R94S, V109L; Synthetic sequence hzG2D VLa
B9: hzG2D-15: humanized G2D clone; "G2D VL region ... of clones 1-16, 19-21, 26-29, 31, and 33 ... grafted into the human germline sequence VKI-L1 with JK4" (antibody, V domains shown)
VH: B1 VH with T87R, V110L
VL: B1 VL
modifications: Synthetic sequence hzG2.42D VH R66K, V67A, T68S, I69L, R71V, A93T, R94S, V109L; Synthetic sequence hzG2D VLa
B10: hzG2D-13: humanized G2D clone; "G2D VL region ... of clones 1-16, 19-21, 26-29, 31, and 33 ... grafted into the human germline sequence VKI-L1 with JK4" (antibody, V domains shown)
VH: B1 VH with T28S, K67R, A68V, T87R, V110L
VL: B1 VL
modifications: Synthetic sequence hzG2.7D VH T28S, T68S, I69L, R71V, A93T, R94S, V109L; Synthetic sequence hzG2D VLa
B11: hzG2D-10: humanized G2D clone; "G2D VL region ... of clones 1-16, 19-21, 26-29, 31, and 33 ... grafted into the human germline sequence VKI-L1 with JK4" (antibody, V domains shown)
VH: B1 VH with K67R, A68V, T87R, V110L
VL: B1 VL
modifications: Synthetic sequence hzG2.44D VH T68S, I69L, R71V, A93T, R94S, V109L; Synthetic sequence hzG2D VLa
B12: hzG2D-34: humanized G2D clone; "G2D VL region ... of clones 22, 23, 30, 32, and 34-37 ... grafted into the human germline sequence VKI-O2 with JK4" (antibody, V domains shown)
VH: B1 VH
VL: B1 VL with F36Y, S46L
modifications: Synthetic sequence hzG2.51D VH R66K, V67A, T68S, I69L, R71V, R84T, A93T, R94S; Synthetic sequence hzG2D VLb
B13: hzG2D-14: humanized G2D clone; "G2D VL region ... of clones 1-16, 19-21, 26-29, 31, and 33 ... grafted into the human germline sequence VKI-L1 with JK4" (antibody, V domains shown)
VH: B1 VH with T28S, T87R, T97A, S98R, V110L
VL: B1 VL
modifications: Synthetic sequence hzG2.4D VH T28S, R66K, V67A, T68S, I69L, R71V, V109L; Synthetic sequence hzG2D VLa
B14: hzG2D-7: humanized G2D clone; "G2D VL region ... of clones 1-16, 19-21, 26-29, 31, and 33 ... grafted into the human germline sequence VKI-L1 with JK4" (antibody, V domains shown)
VH: B1 VH with T28S, S69T, L70I, V72R, T87R, T97A, S98R, V110L
VL: B1 VL
modifications: Synthetic sequence hzG2.2D VH T28S, R66K, V67A, V109L; Synthetic sequence hzG2D VLa
B15: hzG2D-4: humanized G2D clone; "G2D VL region ... of clones 1-16, 19-21, 26-29, 31, and 33 ... grafted into the human germline sequence VKI-L1 with JK4" (antibody, V domains shown)
VH: B1 VH with S69T, L70I, V72R, T87R, T97A, S98R, V110L
VL: B1 VL
modifications: Synthetic sequence hzG2.39D VH R66K, V67A, V109L; Synthetic sequence hzG2D VLa

Target: T1, HepG2 cells (which express ASGR1)
Assay: Guava HepG2 cell binding screen of humanized anti-ASGR1 clones
Set-up: unit not given here
Details: humanized G2D clones (Table 5); two numbers per cell, not explained
Protocol: Hybridomas producing monoclonal antibodies (mAbs) specific for human ASGR1 were prepared from Balb/C mice immunized with ASGR1-AviHis at a service provider using their propriety protocol. Antibody heavy and light chain sequences were obtained, amplified, and cloned. Clone supernatants containing the expressed mAbs were screened for binding to a human ASGR1-IgG1Fc fusion protein, and those with a positive signal as measured by enzyme linked immunosorbent assay (ELISA) were screened for cell binding on HepG2 cells (which express ASGR1).

| Molecule | Guava HepG2 Screen |
| --- | --- |
| B1 | 164/85 |
| B2 | 91/55 |
| B3 | 155/117 |
| B4 | 31/21 |
| B5 | 39/23 |
| B6 | 38/20 |
| B7 | 158/113 |
| B8 | 131/95 |
| B9 | 172/119 |
| B10 | 140/83 |
| B11 | 149/63 |
| B12 | 194/109 |
| B13 | 37/16 |
| B14 | 46/22 |
| B15 | 55/22 |

From US11541126B1, “Anti-ASGR1 antibody TLR8 agonist comprising conjugates and uses thereof” (Silverback Therapeutics, Inc., priority 2020, dated 2023)
